Patent US20230322924A1
Numbering of substitutions follows the chain as printed. Numbers in names are those of the source.

B1: CD3B312 (antibody, V domains shown)
VH: QVQLQQSGPRLVRPSQTLSLTCAISGDSVFNNNAAWSWIRQSPSRGLEWLGRTYYRSKWLYDYAVSVKSRITVNPDTSRNQFTLQLNSVTPEDTALYYCARGYSSSFDYWGQGTLVTVSS
VL: QSALTQPASVSGSPGQSITISCTGTSSNIGTYKFVSWYQQHPDKAPKVLLYEVSKRPSGVSSRFSGSKSGNTASLTISGLQAEDQADYHCCSYAGSGTLLFGGGTKLTVL
B2: CD3B376 (antibody, human IgG4 S228P, lambda, F234A L235A, V domains shown)
VH: B1 VH
VL: QSALTQPASVSGSPGQSITISCTGTSSNIGTYKFVSWYQQHPDKAPKVLLYEVSKRPSGVSSRFSGSKSGNTASLTISGLQAEDQADYHCVSYAGSGTLLFGGGTKLTVLG
B3: BLW-2E6 variant CD3H219/CD3L160 (LC C91L) (antibody, V domains shown)
VH: B1 VH
VL: B1 VL with C91L
B4: BLW-2E6 variant CD3H219/CD3L137 (antibody, V domains shown)
VH: B1 VH
VL: B1 VL with D43G, L49M, L50I, S62N, Q85E, H89Y
B5: monovalent CD3B376 construct (bispecific antibody, part only; not given: unnamed target arm, not shown: another chain or arm of the molecule; small tags and cut ends)
heavy: QVQLQQSGPRLVRPSQTLSLTCAISGDSVFNNNAAWSWIRQSPSRGLEWLGRTYYRSKWLYDYAVSVKSRITVNPDTSRNQFTLQLNSVTPEDTALYYCARGYSSSFDYWGQGTLVTVSSASTKGPSVFPLAPCSRSTSESTAALGCLVKDYFPEPVTVSWNSGALTSGVHTFPAVLQSSGLYSLSSVVTVPSSSLGTKTYTCNVDHKPSNTKVDKRVESKYGPPCPPCPAPEAAGGPSVFLFPPKPKDTLMISRTPEVTCVVVDVSQEDPEVQFNWYVDGVEVHNAKTKPREEQFNSTYRVVSVLTVLHQDWLNGKEYKCKVSNKGLPSSIEKTISKAKGQPREPQVYTLPPSQEEMTKNQVSLTCLVKGFYPSDIAVEWESNGQPENNYKTTPPVLDSDGSFLLYSKLTVDKSRWQEGNVFSCSVMHEALHNHYTQKSLSLSLGK
light: QSALTQPASVSGSPGQSITISCTGTSSNIGTYKFVSWYQQHPDKAPKVLLYEVSKRPSGVSSRFSGSKSGNTASLTISGLQAEDQADYHCVSYAGSGTLLFGGGTKLTVLGQPKAAPSVTLFPPSSEELQANKATLVCLISDFYPGAVTVAWKADSSPVKAGVETTTPSKQSNNKYAASSYLSLTPEQWKSHRSYSCQVTHEGSTVEKTVAPTECS
B6: monovalent CD3B450 construct (bispecific antibody, part only; not given: unnamed target arm, not shown: another chain or arm of the molecule; small tags and cut ends)
heavy: B5 heavy with R10G, R13K, V73I, R79K, T83S, L96V
light: B5 light with D43G, L49M, L50I, S62N, Q85E, H89Y

Columns and labels:
[1] = molecular target: recombinant human CD3ε (1-27) peptide with a C-terminal Tencon25 fusion (human) (UniProt P07766); experiment: ProteOn SPR, mAb captured by anti-human Fc, antigen as analyte
Sequence of recombinant human CD3ε (1-27) peptide with a C-terminal Tencon25 fusion (human) (P07766 22-48): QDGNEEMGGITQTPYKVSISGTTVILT

[2] = molecular target: human CD3 on human T cells (human) (UniProt P07766); experiment: competition with AF488 SP-34 tracer on human pan T cells, flow cytometry
Sequence of human CD3 on human T cells (human) (P07766 23-207 limits assumed): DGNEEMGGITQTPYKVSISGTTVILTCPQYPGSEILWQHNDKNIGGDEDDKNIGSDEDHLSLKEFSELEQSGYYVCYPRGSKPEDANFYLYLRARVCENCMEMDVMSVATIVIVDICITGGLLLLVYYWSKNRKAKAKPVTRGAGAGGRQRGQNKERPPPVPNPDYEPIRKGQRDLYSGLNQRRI

[3] = molecular target: human CD3 on human T cells (human) (UniProt P07766); experiment: Kd = IC50/(1+[T]/KdT) from competition with AF488 SP-34 on human pan T cells

| Binder | Kd [1] | koff [1] | kon [1] | IC50 [2] | Kd [3] |
| --- | --- | --- | --- | --- | --- |
| B1 | 20.6 nM | 0.00187 s⁻¹ | 90800 M⁻¹ s⁻¹ | – | – |
| B2 | 23.3 nM | 0.00237 s⁻¹ | 102000 M⁻¹ s⁻¹ | – | – |
| B3 | 41.1 nM | 0.00405 s⁻¹ | 98400 M⁻¹ s⁻¹ | – | – |
| B4 | 32.9 nM | 0.00202 s⁻¹ | 61300 M⁻¹ s⁻¹ | – | – |
| B5 | – | – | – | 409 nM | 103 nM |
| B6 | – | – | – | 1010 nM | 254 nM |
